According to patent US20120077224A1 (SALK INSTITUTE FOR BIOLOGICAL STUDIES, published 2012):
Non-standard residues stand in square brackets, D forms with d. Phe(4-N3) = [N-]=[N+]=Nc1ccc(C[C@H](N)C(=O)O)cc1

Columns and labels:
[1] = target: the molecule itself; test: in-cell photocrosslinking of the GST homodimer (365 nm, 10 min), band intensity ratio on anti-His Western blot
Experimental: E. coli GST is homodimer (Nishida et al., J. Mol. Biol., 1998, 281:135-147). Three sites at the dimer interface, Asn87 in a loop and Tyr92 and Val125 in α-helices were chosen for incorporating Azi (FIG. 10A). GST genes with TAG mutation at these sites and a C-terminal His6 tag were cotransfected with the orthogonal tRNACUA^Tyr/EAziRS pair in HEK293 cells, and the cells were grown in the presence of 1 mM of Azi. Photocrosslinking was performed by exposing the cells under 365 nm UV light for 10 minutes. Cell lysates were separated on SDS-PAGE and probed with an antibody against the His6 tag.
After photocrosslinking, higher molecular weight bands around 46 kD emerged, accompanied by the intensity decrease of the monomer band (several faint bands between 23 kD and 46 kD were proteins in the cell lysate recognized by the penta-His antibody nonspecifically, which were also seen in samples without exposure to UV light). […] Crosslinked GST migrated at different positions in the gel depending on where Azi was incorporated.

[2] = target: the molecule itself; test: in-cell photocrosslinking of the GST homodimer, anti-FLAG Western blot

Protein	crosslinking efficiency [1]	binding result [2]
E. coli glutathione S-transferase (GST) with p-azidophenylalanine (Azi) incorporated at Tyr92 (92TAG), C-terminal His6 tag (enzyme, Expressed in HEK293/HEK293T cells with tRNACUA-Tyr/EAziRS and 1 mM Azi; crosslinked in live cells with 365 nm UV; X stands for the unnatural amino acid Azi; also called site 92; GST-His6) MKLFYKPGACSLASHITLRESGKDFTLVSVDLMKKRLENGDDYFAVNPKGQVPALLLDDGTLLTEGVAIMQYLADSVPDRQLLAPVNSISR[Phe(4-N3)]KTIEWLNYIATELHKGFTPLFRPDTPEEYKPTVRAQLEKKLQYVNEALKDEHWICGQRFTIADAYLFTVLRWAYAVKLNLEGLEHIAAFMQRMAERPEVQDALSAEGLKHHHHHH	40%	–
E. coli glutathione S-transferase (GST) with p-azidophenylalanine (Azi) incorporated at Asn87 (87TAG), C-terminal His6 tag (enzyme, Expressed in HEK293/HEK293T cells with tRNACUA-Tyr/EAziRS and 1 mM Azi; crosslinked in live cells with 365 nm UV; X stands for the unnatural amino acid Azi; also called GST 87TAG; site 87) MKLFYKPGACSLASHITLRESGKDFTLVSVDLMKKRLENGDDYFAVNPKGQVPALLLDDGTLLTEGVAIMQYLADSVPDRQLLAPV[Phe(4-N3)]SISRYKTIEWLNYIATELHKGFTPLFRPDTPEEYKPTVRAQLEKKLQYVNEALKDEHWICGQRFTIADAYLFTVLRWAYAVKLNLEGLEHIAAFMQRMAERPEVQDALSAEGLKHHHHHH	33%	–
E. coli glutathione S-transferase (GST) with p-azidophenylalanine (Azi) incorporated at Asn87 (87TAG), C-terminal FLAG tag (enzyme, UniProt P0A9D2 1-201, looked up, not fully specified (C-terminus); also: homodimer, not shown: C-terminal FLAG tag replacing the His6 tag) MKLFYKPGACSLASHITLRESGKDFTLVSVDLMKKRLENGDDYFAVNPKGQVPALLLDDGTLLTEGVAIMQYLADSVPDRQLLAPV[Phe(4-N3)]SISRYKTIEWLNYIATELHKGFTPLFRPDTPEEYKPTVRAQLEKKLQYVNEALKDEHWICGQRFTIADAYLFTVLRWAYAVKLNLEGLEHIAAFMQRMAERPEVQDALSAEGLK	–	binds
E. coli glutathione S-transferase (GST) with p-azidophenylalanine (Azi) incorporated at Val125 (125TAG), C-terminal FLAG tag (enzyme, UniProt P0A9D2 1-201, looked up, not fully specified (C-terminus); also: homodimer, not shown: C-terminal FLAG tag replacing the His6 tag) MKLFYKPGACSLASHITLRESGKDFTLVSVDLMKKRLENGDDYFAVNPKGQVPALLLDDGTLLTEGVAIMQYLADSVPDRQLLAPVNSISRYKTIEWLNYIATELHKGFTPLFRPDTPEEYKPT[Phe(4-N3)]RAQLEKKLQYVNEALKDEHWICGQRFTIADAYLFTVLRWAYAVKLNLEGLEHIAAFMQRMAERPEVQDALSAEGLK	–	binds
E. coli glutathione S-transferase (GST) with p-azidophenylalanine (Azi) incorporated at Val125 (125TAG), C-terminal His6 tag (enzyme, Expressed in HEK293/HEK293T cells with tRNACUA-Tyr/EAziRS and 1 mM Azi; crosslinked in live cells with 365 nm UV; X stands for the unnatural amino acid Azi) MKLFYKPGACSLASHITLRESGKDFTLVSVDLMKKRLENGDDYFAVNPKGQVPALLLDDGTLLTEGVAIMQYLADSVPDRQLLAPVNSISRYKTIEWLNYIATELHKGFTPLFRPDTPEEYKPT[Phe(4-N3)]RAQLEKKLQYVNEALKDEHWICGQRFTIADAYLFTVLRWAYAVKLNLEGLEHIAAFMQRMAERPEVQDALSAEGLKHHHHHH	98%	–
